Experimental data: article PMC10299496, “Effect of Chemical Chaperones on the Stability of Proteins during Heat– or Freeze–Thaw Stress” (International Journal of Molecular Sciences, 2023)
Where “and” joins values, the source holds several entries; their conditions need not be identical. Equal entries are not always repeated.

Tests used:
[1] = target: the molecule itself; experiment: AUC; sedimentation velocity, c(M) distributions; GDH 0.2 mg/mL pre-heated 10 min at 50 °C with or without HPCD, Sorb, Tre or Bet, then cooled; run at 25 °C, 48,000 rpm, 0.1 M Na-phosphate pH 7.6, 0.01 M NaCl
[2] = target: the molecule itself; experiment: AUC; sedimentation velocity, c(M) distributions; Phb 0.35 mg/mL pre-heated 40 min at 48 °C with or without HPCD, Tre or Bet, cooled 2 min in ice water; run at 25 °C, 48,000 rpm, 0.03 M HEPES pH 6.8, 0.15 M NaCl

Protein | stoichiometry N [1] | stoichiometry N [2]
Glutamate dehydrogenase from bovine liver (enzyme, glutamate dehydrogenase, bovine liver; homohexamer of six identical subunits of 56-57 kDa; also called GDH; GDHfr (frozen-thawed GDH)) not shown | 6 and 2 | 
Glycogen phosphorylase b from rabbit skeletal muscle (enzyme, UniProt P00489 1-843, looked up, glycogen phosphorylase b (muscle form), rabbit skeletal muscle; dimer of two identical subunits of 97.4 kDa; also called Phb; Phbfr (frozen-thawed Phb)) MSRPLSDQEKRKQISVRGLAGVENVTELKKNFNRHLHFTLVKDRNVATPRDYYFALAHTVRDHLVGRWIRTQQHYYEKDPKRIYYLSLEFYMGRTLQNTMVNLALENACDEATYQLGLDMEELEEIEEDAGLGNGGLGRLAACFLDSMATLGLAAYGYGIRYEFGIFNQKICGGWQMEEADDWLRYGNPWEKARPEFTLPVHFYGRVEHTSQGAKWVDTQVVLAMPYDTPVPGYRNNVVNTMRLWSAKAPNDFNLKDFNVGGYIQAVLDRNLAENISRVLYPNDNFFEGKELRLKQEYFVVAATLQDIIRRFKSSKFGCRDPVRTNFDAFPDKVAIQLNDTHPSLAIPELMRVLVDLERLDWDKAWEVTVKTCAYTNHTVLPEALERWPVHLLETLLPRHLQIIYEINQRFLNRVAAAFPGDVDRLRRMSLVEEGAVKRINMAHLCIAGSHAVNGVARIHSEILKKTIFKDFYELEPHKFQNKTNGITPRRWLVLCNPGLAEIIAERIGEEYISDLDQLRKLLSYVDDEAFIRDVAKVKQENKLKFAAYLEREYKVHINPNSLFDVQVKRIHEYKRQLLNCLHVITLYNRIKKEPNKFVVPRTVMIGGKAAPGYHMAKMIIKLITAIGDVVNHDPVVGDRLRVIFLENYRVSLAEKVIPAADLSEQISTAGTEASGTGNMKFMLNGALTIGTMDGANVEMAEEAGEENFFIFGMRVEDVDRLDQRGYNAQEYYDRIPELRQIIEQLSSGFFSPKQPDLFKDIVNMLMHHDRFKVFADYEEYVKCQERVSALYKNPREWTRMVIRNIATSGKFSSDRTIAQYAREIWGVEPSRQRLPAPDEKIP |  | 2 and 4
